Laboratory results from US20250388667A1 (BIO THERA SOLUTIONS, published 2025).
Substitutions are numbered along the chain they refer to.

T1: Nectin-4 on T-47D cells (human, UniProt Q96NY8 32-510)
T1 construct: whole, on cells; endogenous expression; also called T-47D cells positive for Nectin-4 expression
T1 sequence (looked up): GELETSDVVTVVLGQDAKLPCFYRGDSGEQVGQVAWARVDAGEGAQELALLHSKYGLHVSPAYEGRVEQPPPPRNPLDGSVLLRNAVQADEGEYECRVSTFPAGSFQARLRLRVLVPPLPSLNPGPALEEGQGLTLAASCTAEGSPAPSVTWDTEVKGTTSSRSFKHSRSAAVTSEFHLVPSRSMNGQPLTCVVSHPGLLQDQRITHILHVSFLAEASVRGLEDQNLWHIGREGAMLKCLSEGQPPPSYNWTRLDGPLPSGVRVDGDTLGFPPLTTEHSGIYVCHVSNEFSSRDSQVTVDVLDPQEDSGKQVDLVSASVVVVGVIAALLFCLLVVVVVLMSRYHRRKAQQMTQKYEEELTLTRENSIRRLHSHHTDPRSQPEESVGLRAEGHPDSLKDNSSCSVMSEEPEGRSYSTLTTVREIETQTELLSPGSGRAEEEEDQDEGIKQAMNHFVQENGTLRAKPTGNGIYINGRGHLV

T2: hNectin-1 (ACRO, PV1-H5223) (human, UniProt Q15223 31-334)
T2 construct: bought
T2 sequence (looked up): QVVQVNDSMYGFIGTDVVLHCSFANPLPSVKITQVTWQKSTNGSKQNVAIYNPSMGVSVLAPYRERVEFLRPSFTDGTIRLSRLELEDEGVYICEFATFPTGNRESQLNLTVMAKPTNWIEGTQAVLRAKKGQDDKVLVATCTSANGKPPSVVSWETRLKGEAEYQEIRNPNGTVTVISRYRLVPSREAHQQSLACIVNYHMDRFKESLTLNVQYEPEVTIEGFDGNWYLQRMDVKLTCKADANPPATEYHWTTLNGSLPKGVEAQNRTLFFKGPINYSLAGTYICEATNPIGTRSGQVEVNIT

T3: hNectin-2 (ACRO, PV2-H52E2) (human, UniProt Q92692 32-360)
T3 construct: bought
T3 sequence (looked up): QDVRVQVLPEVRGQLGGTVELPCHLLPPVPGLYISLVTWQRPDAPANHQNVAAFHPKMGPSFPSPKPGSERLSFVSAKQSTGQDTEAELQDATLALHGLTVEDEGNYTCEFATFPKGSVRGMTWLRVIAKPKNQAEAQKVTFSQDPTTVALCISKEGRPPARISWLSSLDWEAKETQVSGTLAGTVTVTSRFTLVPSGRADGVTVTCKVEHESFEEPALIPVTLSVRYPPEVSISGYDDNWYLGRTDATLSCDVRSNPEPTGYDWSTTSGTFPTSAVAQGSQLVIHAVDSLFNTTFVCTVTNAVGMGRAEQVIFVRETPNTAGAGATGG

B1: antibody 1F3 (antibody, human IgG1, kappa, V domains shown)
VH: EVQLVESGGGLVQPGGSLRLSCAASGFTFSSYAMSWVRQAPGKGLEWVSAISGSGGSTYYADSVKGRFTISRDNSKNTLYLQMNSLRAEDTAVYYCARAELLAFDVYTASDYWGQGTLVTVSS
VL: DIQMTQSPSSLSASVGDRVTITCRASQGISSYLAWYQQKPGKAPKLLIYAASSLQSGVPSRFSGSGSGTDFTLTISSLQPEDFATYYCQQHYTTPPTFGQGTKVEIKR
notes: intact antibody
B2: antibody 1G8 (antibody, human IgG1, kappa, V domains shown)
VH: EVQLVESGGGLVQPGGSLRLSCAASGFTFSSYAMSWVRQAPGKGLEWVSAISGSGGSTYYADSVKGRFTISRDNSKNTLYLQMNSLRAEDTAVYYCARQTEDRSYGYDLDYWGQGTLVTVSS
VL: B1 VL
notes: intact antibody
B3: antibody 10F4 (antibody, human IgG1, kappa, V domains shown)
VH: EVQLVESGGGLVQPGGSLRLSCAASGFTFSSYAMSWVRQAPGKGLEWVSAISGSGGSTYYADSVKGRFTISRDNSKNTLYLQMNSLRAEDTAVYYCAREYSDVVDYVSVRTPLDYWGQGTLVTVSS
VL: B1 VL
notes: intact antibody
B4: reference antibody ASG-22 (antibody, human IgG1, kappa, V domains shown)
VH: EVQLVESGGGLVQPGGSLRLSCAASGFTFSSYNMNWVRQAPGKGLEWVSYISSSSSTIYYADSVKGRFTISRDNAKNSLSLQMNSLRDEDTAVYYCARAYYYGMDVWGQGTLVTVSS
VL: B1 VL with L11V, S31G, Y32W, L46F, S53T, H91A, Y92N, T93S, T94F, Q100G
B5: antibody 10A4 (antibody, human IgG1, kappa, V domains shown)
VH: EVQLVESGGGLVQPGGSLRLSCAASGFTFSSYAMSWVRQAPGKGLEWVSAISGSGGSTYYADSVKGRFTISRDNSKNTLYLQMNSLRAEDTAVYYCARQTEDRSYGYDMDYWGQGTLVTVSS
VL: B1 VL
notes: intact antibody
B6: antibody 3A10 (antibody, human IgG1, kappa, V domains shown)
VH: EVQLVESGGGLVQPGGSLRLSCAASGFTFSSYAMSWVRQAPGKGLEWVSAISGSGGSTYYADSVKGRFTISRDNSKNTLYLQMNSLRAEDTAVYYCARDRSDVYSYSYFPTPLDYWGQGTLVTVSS
VL: B1 VL
notes: intact antibody
B7: antibody 1B4 (antibody, human IgG1, kappa, V domains shown)
VH: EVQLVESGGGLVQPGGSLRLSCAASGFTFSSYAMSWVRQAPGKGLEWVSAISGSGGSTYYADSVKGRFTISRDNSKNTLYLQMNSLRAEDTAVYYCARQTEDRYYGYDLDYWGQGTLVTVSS
VL: B1 VL
notes: intact antibody
B8: antibody 1F3-1B1 (antibody, human IgG1, kappa, V domains shown)
VH: EVQLVESGGGLVQPGGSLRLSCAASGFTFGTYGMSWVRQAPGKGLEWVSGIKPGDSTTYYADSVKGRFTISRDNSKNTLYLQMNSLRAEDTAVYYCARAELLAFDVYTASDYWGQGTLVTVSS
VL: B1 VL
notes: intact antibody
B9: antibody 1F3-2B1 (antibody, human IgG1, kappa, V domains shown)
VH: B8 VH with F27Y, T28N, G30D, T31N, G33A, G54D, D55S, S56A
VL: B1 VL
notes: intact antibody
B10: antibody 10F4-3 (antibody, human IgG1, kappa, V domains shown)
VH: EVQLVESGGGLVQPGGSLRLSCAASGFSFGDFAMSWVRQAPGKGLEWVSVIDGHTAYNSYADSVKGRFTISRDNSKNTLYLQMNSLRAEDTAVYYCAREYSDVVDYVSVRTPLDYWGQGTLVTVSS
VL: B1 VL
notes: intact antibody
B11: antibody 10F4-1 (antibody, human IgG1, kappa, V domains shown)
VH: EVQLVESGGGLVQPGGSLRLSCAASGDSFTNYWMSWVRQAPGKGLEWVSGISQGGSYAYYADSVKGRFTISRDNSKNTLYLQMNSLRAEDTAVYYCAREYSDVVDYVSVRTPLDYWGQGTLVTVSS
VL: B1 VL
notes: intact antibody
B12: antibody 1F3-2F3 (antibody, human IgG1, kappa, V domains shown)
VH: EVQLVESGGGLVQPGGSLRLSCAASGFNFSDYGMSWVRQAPGKGLEWVSRIDWDGGNTRYADSVKGRFTISRDNSKNTLYLQMNSLRAEDTAVYYCARAELLAFDVYTASDYWGQGTLVTVSS
VL: B1 VL
notes: intact antibody
B13: antibody 1F3-2E8 (antibody, human IgG1, kappa, V domains shown)
VH: B12 VH with F27Y, N28S, R50W, D52S, W53P, D54S, G55K, N57S, T58A, R59S
VL: B1 VL
notes: intact antibody
B14: antibody 10F4-5 (antibody, human IgG1, kappa, V domains shown)
VH: EVQLVESGGGLVQPGGSLRLSCAASGFIFDGYDMSWVRQAPGKGLEWVSVIKDHGGYKFYADSVKGRFTISRDNSKNTLYLQMNSLRAEDTAVYYCAREYSDVVDYVSVRTPLDYWGQGTLVTVSS
VL: B1 VL
notes: intact antibody
B15: antibody 1F3-1E1 (antibody, human IgG1, kappa, V domains shown)
VH: B8 VH with T28S, G30D, T31D, G33A, G50I, K52Y, G54T, D55G, T58N
VL: B1 VL
notes: intact antibody
B16: antibody 1F3-1G11 (antibody, human IgG1, kappa, V domains shown)
VH: B8 VH with F27Y, T28S, G30T, T31G, K52S, G54S, D55G, S56G, T58I, Y59G
VL: B1 VL
notes: intact antibody

biological target: T1, Nectin-4 on T-47D cells; assay: FACS on T-47D cells, 10 µg/mL on ice, 0 h point of the endocytosis assay
Procedure: (§1) In this assay, the relative amount of antibodies remaining on the cell surface after co-incubation at 37° C. for a certain period of time was detected by FACS to reflect the endocytosis efficiency. The procedures are briefly described as follows: T-47D cells (human ductal breast cancer cells, derived from the Cell Bank of Chinese Academy of Sciences, Cat. No. TCHu 87); the antibodies were adjusted to 10 μg/mL and co-incubated with the cells on ice for 1 h; the cells were washed 3 times with pre-cooled PBS, and then placed at 37° C. and incubated for 0 h, 2 h and 4 h; 0.2% N₃Na was added to stop the endocytosis reaction; the cells were washed with PBS thrice, followed by the addition of the PE-labeled anti-human Fc secondary antibody (Invitrogen 12-4998-82); the cells were incubated at 4° C. for 30 min; the red fluorescence signal was detected on a flow cytometer.

Question: For B1, which “MFI (0 h)” value is on record?
Answer: 121000 MFI

Question: How did the “MFI (0 h)” value turn out when B2 was run?
Answer: 105000 MFI

Question: Which “MFI (0 h)” value does the source give for B3 here?
Answer: 104000 MFI

Question: B4 was tested. Which “MFI (0 h)” value did it give?
Answer: 107000 MFI

Question: With B5 as the binder, how does the “MFI (0 h)” value read?
Answer: 107000 MFI

Question: With B6 as the binder, how does the “MFI (0 h)” value read?
Answer: 105000 MFI

Question: With B7 as the binder, how does the “MFI (0 h)” value read?
Answer: 108000 MFI

biological target: T1, Nectin-4 on T-47D cells; assay: as above; remark: another data set of the same source
Procedure: as §1

Question: With B4 as the binder, how does the “MFI (0 h)” value read?
Answer: 58600 MFI

Question: Which “MFI (0 h)” value does the source give for B8 here?
Answer: 65300 MFI

Question: With B9 as the binder, how does the “MFI (0 h)” value read?
Answer: 59400 MFI

Question: B10 was tested. Which “MFI (0 h)” value did it give?
Answer: 61200 MFI

Question: Which “MFI (0 h)” value does the source give for B11 here?
Answer: 58600 MFI

Question: For B12, which “MFI (0 h)” value is on record?
Answer: 69000 MFI

Question: Which “MFI (0 h)” value does the source give for B13 here?
Answer: 58200 MFI

Question: Which “MFI (0 h)” value does the source give for B14 here?
Answer: 63400 MFI

Question: With B15 as the binder, how does the “MFI (0 h)” value read?
Answer: 73400 MFI

Question: Which “MFI (0 h)” value does the source give for B16 here?
Answer: 60500 MFI

biological target: T2, hNectin-1 (ACRO, PV1-H5223); assay: ELISA, antigen coated, HRP-labeled anti-human-Kappa secondary antibody
Procedure: (§2) The binding activity of intact antibodies was detected by ELISA. The procedures are briefly described as follows: the hNectin-4-His antigen protein of Example 1 was immobilized at a concentration of 1 μg/mL on a plate; the plate was blocked with skimmed milk powder overnight, and then, serially diluted antibodies of interest were added for co-incubation (antibodies in Table 9 were serially 2-fold diluted from 2 μg/mL; antibodies in Tables 10 and 11 were serially 3-fold diluted from 10 μg/mL) at room temperature for 2 h; then an HRP-labeled anti-human-kappa (Sigma, A7164) secondary antibody was added for co-incubation for 1 h, followed by the addition of TMB (Huzhou InnoReagents, TMB-S-001) for chromogenic reaction, and the reaction was stopped with 0.1 M H₂SO₄; after the absorbance at OD450 was read on a microplate reader, the binding EC₅₀ value for each antibody was calculated by four-parameter fitting, and the binding activities of the antibodies were compared.
(§3) In this assay, the binding of different antibodies to human Nectin-4 homologous proteins hNectin-1 (ACRO, PV1-H5223), hNectin-2 (ACRO, PV2-H52E2), hNectin-3 (ACRO, PV3-H52E4), and hNectin-4-His was detected by ELISA to determine the specificity of the antibodies. For the methodology and procedures, see Example 4. Antigens of interest ([…]) were immobilized; after blocking, serially diluted antibodies (2-fold serially diluted from […]) were added, and HRP-labeled anti-human-Kappa secondary antibody was added for chromogenic reaction.

Question: Does B1 bind?
Answer: no binding (tested: 2000 ng/mL)

Question: Does B2 bind?
Answer: no binding (tested: 2000 ng/mL)

Question: Does B3 bind?
Answer: no binding (tested: 2000 ng/mL)

biological target: T3, hNectin-2 (ACRO, PV2-H52E2); assay: as above
Procedure: as §2, §3

Question: Does B1 bind?
Answer: no binding (tested: 2000 ng/mL)

Question: Does B2 bind?
Answer: no binding (tested: 2000 ng/mL)

Question: Does B3 bind?
Answer: no binding (tested: 2000 ng/mL)
